Holding throughout (test): SPR, mAb captured, 37 C
On the technique in general: Surface plasmon resonance follows binding to a sensor surface in real time, without labels.

In assay [1] the target is T1, recombinant human LEPR extracellular domain expressed with a C-terminal myc-myc-hexahistidine tag (human, UniProt P48357 22-839).
T1 construct: Monomeric construct; also called hLEPR.MMH; hLEPR-MMH
On the procedure:
(§1) Equilibrium dissociation constants (KD values) for antigen binding to purified anti-LEPR monoclonal antibodies of the invention were determined using a real-time surface plasmon resonance biosensor using a Biacore 4000 instrument. All binding studies were performed in running buffer containing 10 mM HEPES, 150 mM NaCl, 3 mM EDTA, and 0.05% v/v Surfactant Tween-20, pH 7.4 (HBS-ET running buffer) at 25° C. and 37° C. The Biacore sensor surface was first derivatized by amine coupling with a monoclonal mouse anti-human Fc antibody (GE, # BR-1008-39) to the capture anti-LEPR monoclonal antibodies. The LEPR reagents tested for binding to the anti-LEPR monoclonal antibodies included recombinant human LEPR extracellular domain expressed with a C-terminal myc-myc-hexahistidine tag (hLEPR.MMH; SEQ ID NO:90), recombinant cynomolgus monkey LEPR extracellular domain expressed with a C-terminal myc-myc-hexahistidine tag (mfLEPR.MMH; SEQ ID NO:93), recombinant mouse LEPR extracellular domain expressed with a C-terminal myc-myc-hexahistidine tag (mLEPR.MMH; SEQ ID NO:94), recombinant rat LEPR extracellular domain expressed with a C-terminal myc-myc-hexahistidine tag (rLEPR.MMH; SEQ ID NO:95), and recombinant human LEPR extracellular domain expressed with a C-terminal mouse IgG2a Fc tag (hLEPR.mFc; SEQ ID NO:91). LEPR constructs that include MMH tags are monomeric LEPR constructs, and LEPR constructs including an mFc tag are dimeric LEPR constructs. […] The dissociation of monoclonal antibody bound LEPR reagent was monitored for 10 minutes in HBS-ET running buffer. Kinetic association (10 and dissociation (10 rate constants were determined by fitting the real-time binding sensorgrams to a 1:1 binding model with mass transport limitation using Scrubber 2.0c curve-fitting software. Binding dissociation equilibrium constants (KD) and dissociative half-lives (t½) were calculated from the kinetic rate constants as: […]

Assay [2] has as its target T2, recombinant cynomolgus monkey LEPR extracellular domain expressed with a C-terminal myc-myc-hexahistidine tag (cynomolgus monkey, UniProt Q9MYL0 22-837 (rhesus entry)).
T2 construct: Monomeric construct; also called mfLEPR.MMH; mfLEPR-MMH
As for the experimental part:
as §1

Assay [3] has as its target T3, recombinant human LEPR extracellular domain expressed with a C-terminal mouse IgG2a Fc tag (human).
T3 construct: Dimeric construct; also called hLEPR.mFc; hLEPR-mFc
T3 chain: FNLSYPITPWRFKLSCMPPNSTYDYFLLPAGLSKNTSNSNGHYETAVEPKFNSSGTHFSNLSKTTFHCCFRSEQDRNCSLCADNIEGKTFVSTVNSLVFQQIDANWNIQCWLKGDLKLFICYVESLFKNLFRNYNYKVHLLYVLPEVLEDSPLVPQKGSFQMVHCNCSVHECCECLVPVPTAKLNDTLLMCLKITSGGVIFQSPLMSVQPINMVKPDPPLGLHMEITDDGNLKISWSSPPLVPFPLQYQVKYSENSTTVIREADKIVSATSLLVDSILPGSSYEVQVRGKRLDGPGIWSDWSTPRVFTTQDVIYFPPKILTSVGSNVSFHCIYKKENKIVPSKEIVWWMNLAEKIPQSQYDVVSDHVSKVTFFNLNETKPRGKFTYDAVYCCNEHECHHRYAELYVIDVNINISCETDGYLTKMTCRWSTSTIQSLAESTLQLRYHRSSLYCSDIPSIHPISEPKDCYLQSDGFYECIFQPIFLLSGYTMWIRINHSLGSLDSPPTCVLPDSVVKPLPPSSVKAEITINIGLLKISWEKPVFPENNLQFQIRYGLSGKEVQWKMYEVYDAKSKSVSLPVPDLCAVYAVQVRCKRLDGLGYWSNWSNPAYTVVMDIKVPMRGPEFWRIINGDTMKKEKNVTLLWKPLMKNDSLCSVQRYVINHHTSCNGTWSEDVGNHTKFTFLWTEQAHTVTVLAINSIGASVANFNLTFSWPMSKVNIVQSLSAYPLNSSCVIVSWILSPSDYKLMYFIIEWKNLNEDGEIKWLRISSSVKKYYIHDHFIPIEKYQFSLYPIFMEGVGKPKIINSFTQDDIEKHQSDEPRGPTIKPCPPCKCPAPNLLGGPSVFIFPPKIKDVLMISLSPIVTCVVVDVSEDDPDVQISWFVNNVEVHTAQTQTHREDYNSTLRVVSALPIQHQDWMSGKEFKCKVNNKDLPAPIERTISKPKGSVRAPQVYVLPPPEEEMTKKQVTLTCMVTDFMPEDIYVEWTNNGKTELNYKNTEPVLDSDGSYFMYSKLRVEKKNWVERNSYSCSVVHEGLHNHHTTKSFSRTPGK
As for the experimental part: as §1

For assay [4], the target named is T4, recombinant mouse LEPR extracellular domain expressed with a C-terminal myc-myc-hexahistidine tag (mouse, UniProt P48356 22-839).
T4 construct: Monomeric construct; also called mLEPR.MMH; mLEPR-MMH
On the procedure: as §1

Assay [5] addresses T5, recombinant rat LEPR extracellular domain expressed with a C-terminal myc-myc-hexahistidine tag (rat, UniProt Q62959 22-839).
T5 construct: Monomeric construct; also called rLEPR.MMH; rLEPR-MMH
On the procedure:
as §1

T5 sequence (Q62959 other isoform, or with tags, fused parts or gaps): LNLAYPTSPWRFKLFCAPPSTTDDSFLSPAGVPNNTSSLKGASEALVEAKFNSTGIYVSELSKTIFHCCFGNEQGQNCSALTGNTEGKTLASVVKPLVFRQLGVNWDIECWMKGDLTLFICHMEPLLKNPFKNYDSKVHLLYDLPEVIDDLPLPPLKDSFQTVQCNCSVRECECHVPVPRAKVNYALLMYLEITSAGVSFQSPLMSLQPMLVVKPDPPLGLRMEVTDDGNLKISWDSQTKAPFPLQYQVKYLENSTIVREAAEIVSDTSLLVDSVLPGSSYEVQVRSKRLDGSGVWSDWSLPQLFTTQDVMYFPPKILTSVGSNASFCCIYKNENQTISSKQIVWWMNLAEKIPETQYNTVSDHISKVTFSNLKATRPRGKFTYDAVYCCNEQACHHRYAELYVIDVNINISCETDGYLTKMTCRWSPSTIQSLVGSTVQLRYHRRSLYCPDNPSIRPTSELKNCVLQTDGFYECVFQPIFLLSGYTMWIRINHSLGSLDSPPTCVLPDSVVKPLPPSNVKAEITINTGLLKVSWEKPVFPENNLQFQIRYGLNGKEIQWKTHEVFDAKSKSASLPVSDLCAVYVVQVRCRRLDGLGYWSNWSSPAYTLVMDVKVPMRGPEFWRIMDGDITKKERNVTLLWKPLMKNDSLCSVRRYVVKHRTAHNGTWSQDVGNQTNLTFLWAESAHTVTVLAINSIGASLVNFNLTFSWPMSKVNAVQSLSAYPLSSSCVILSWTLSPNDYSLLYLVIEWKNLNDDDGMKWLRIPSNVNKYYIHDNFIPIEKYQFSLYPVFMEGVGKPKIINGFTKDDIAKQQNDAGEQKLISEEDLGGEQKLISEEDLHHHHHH
T4 sequence (P48356 other isoform, or with tags, fused parts or gaps): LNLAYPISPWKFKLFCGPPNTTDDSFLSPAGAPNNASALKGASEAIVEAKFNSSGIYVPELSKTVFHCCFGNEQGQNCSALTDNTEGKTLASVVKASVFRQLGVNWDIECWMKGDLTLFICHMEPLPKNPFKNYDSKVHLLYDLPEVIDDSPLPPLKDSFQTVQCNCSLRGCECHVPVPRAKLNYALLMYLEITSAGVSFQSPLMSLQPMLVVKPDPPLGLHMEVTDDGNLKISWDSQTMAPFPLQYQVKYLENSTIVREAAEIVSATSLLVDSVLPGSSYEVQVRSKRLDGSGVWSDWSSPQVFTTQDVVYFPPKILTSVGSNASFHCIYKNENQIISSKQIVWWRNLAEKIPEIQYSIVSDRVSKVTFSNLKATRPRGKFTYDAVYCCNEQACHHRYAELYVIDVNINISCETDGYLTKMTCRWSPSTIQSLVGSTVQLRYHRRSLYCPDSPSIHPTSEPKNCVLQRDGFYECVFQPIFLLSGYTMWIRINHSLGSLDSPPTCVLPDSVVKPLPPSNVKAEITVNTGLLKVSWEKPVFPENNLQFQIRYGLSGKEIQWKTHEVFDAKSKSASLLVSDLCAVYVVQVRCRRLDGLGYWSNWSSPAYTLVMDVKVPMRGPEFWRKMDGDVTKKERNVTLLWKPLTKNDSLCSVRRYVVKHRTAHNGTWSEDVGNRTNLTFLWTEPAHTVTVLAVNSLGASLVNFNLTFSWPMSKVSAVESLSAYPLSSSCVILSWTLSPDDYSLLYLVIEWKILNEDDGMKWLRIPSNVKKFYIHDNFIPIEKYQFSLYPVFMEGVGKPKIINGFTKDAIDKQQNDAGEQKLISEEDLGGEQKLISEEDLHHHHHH

B1: H4H18439P2 (antibody, human IgG4, V domains shown)
VH: QLQLQESGPGLVKPSETLSLTCIVSGGDITSSSYYWNWIRQPPGKGLEWIGNIYYSGSTNYNPSLKSRVTISIDTSKSQFSLKLRSVTAADTAVYYCARLLRYFDWSKGYLDYWGQGTLVTVSS
VL: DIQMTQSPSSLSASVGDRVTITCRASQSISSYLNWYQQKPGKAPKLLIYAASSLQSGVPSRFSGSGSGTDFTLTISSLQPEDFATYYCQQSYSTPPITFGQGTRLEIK
notes: H4H prefix: human IgG4 Fc
As usually defined, the Kd is a measure of binding affinity in units of concentration. As usually defined, the koff is the rate constant with which the complex falls apart. As usually defined, the kon is the second-order rate constant of association. What is called t½ is how long it takes for the measured level to halve. In the case of B1, in assay [1], the “100 nM hLEPR-MMH Bound (RU)” value worked out at 19 RU, the equilibrium dissociation constant (Kd) was 202 nM, the koff worked out at 0.00469 s⁻¹ and the kon was found to be 23200 M⁻¹ s⁻¹. In addition, the t½ in assay [1] was 2.5 min. For the same molecule, in assay [2], the “100 nM mfLEPR-MMH Bound (RU)” value turned out to be 14 RU, the Kd was 169 nM, the koff amounted to 0.00792 s⁻¹ and the on-rate (kon) was found to be 46900 M⁻¹ s⁻¹. For the same molecule, the t½ in assay [2] worked out at 1.5 min. Also, in assay [3], the “100 nM hLEPR-mFc Bound (RU)” value was found to be 67 RU, the Kd was 15.1 nM, the koff was determined as 0.000923 s⁻¹ and the kon was determined as 60900 M⁻¹ s⁻¹. In addition, the t½ in assay [3] came to 13 min. Further, the “100 nM mLEPR-MMH Bound (RU)” value in assay [4] is -1 RU. Further, the “100 nM rLEPR-MMH Bound (RU)” value in assay [5] turned out to be 0 RU.

B2: H4H18466P2 (antibody, human IgG4, V domains shown)
VH: EVQLVESGGGLVQPGGSLRLSCTASGFTFSSYGLHWVRQAPGKGLEYVSSINHNGGSKYYADSVKGRFTISRDNSKNTLFLQMGSLKTEDMAVYYCARDLFLEWLFHGFDIWGQGTMVTVSS
VL: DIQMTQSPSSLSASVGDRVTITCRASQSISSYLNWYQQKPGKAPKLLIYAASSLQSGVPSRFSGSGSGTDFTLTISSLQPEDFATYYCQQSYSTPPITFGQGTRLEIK
notes: H4H prefix: human IgG4 Fc
B2: in assay [1], the “100 nM hLEPR-MMH Bound (RU)” value was determined as 26 RU, the Kd stood at 148 nM, the koff is 0.00674 s⁻¹ and the kon is 45500 M⁻¹ s⁻¹. Also, the t½ in assay [1] worked out at 1.7 min. For the same molecule, in assay [2], the “100 nM mfLEPR-MMH Bound (RU)” value is 27 RU, the Kd was determined as 164 nM, the off-rate (koff) was 0.0138 s⁻¹ and the kon stood at 84300 M⁻¹ s⁻¹. The t½ in assay [2] worked out at 0.8 min. Besides, in assay [3], the “100 nM hLEPR-mFc Bound (RU)” value is 52 RU, the Kd came to 8.86 nM, the off-rate (koff) was 0.00052 s⁻¹ and the kon came out at 58700 M⁻¹ s⁻¹. Also, the t½ in assay [3] was found to be 22 min. The “100 nM mLEPR-MMH Bound (RU)” value in assay [4] was 3 RU. Moreover, in assay [5], the “100 nM rLEPR-MMH Bound (RU)” value is 6 RU, the Kd was 771 nM, the koff turned out to be 0.0252 s⁻¹ and the on-rate (kon) is 32600 M⁻¹ s⁻¹. For the same molecule, the t½ in assay [5] worked out at 0.5 min.

For the origin of these results see patent US20200123264A1 (Regeneron, published 2020).
